In article PMC2891831, “Insight into the Mechanisms of Adenovirus Capsid Disassembly from Studies of Defensin Neutralization” (PLoS Pathogens, 2010):

How the values were obtained:
HAdV species C = assay: Infection assay (hexon staining), HAdV species C; format: cell-based, human adenovirus; conditions: 15 µM HD5, A549 cells, hexon staining at ~48 h, vs. no defensin
Experimental: (§1) To determine whether sensitivity to α-defensins is a general property of HAdVs, serotypes representative of HAdV species A–F were tested for infectivity in the presence of 15 µM HD5 or HNP1 (Figure 1). Wild type HAdVs rather than vectors were used for these studies, and infectivity was assessed by staining for hexon production. […] These studies indicate that sensitivity to α-defensins is species specific. In addition, particular HAdV serotypes are not equally sensitive to all defensins, indicating defensin sequence specificity as well.
(§2) Figure 1 Sensitivity to neutralization by alpha-defensins is AdV species specific. HAdVs were incubated with 15 µM HD5 (A) or HNP1 (B) and assessed for infectivity on A549 cells. Data are the mean of the percent infectivity compared to control cells infected with each virus in the absence of defensin for at least three independent experiments ± SD. The upper limit for quantification of this assay is 200%. […]
(§3) Prior to use in this assay, each virus stock was titrated on A549 cells. […] In parallel, wells were infected with two-fold serial dilutions of each virus to establish a standard curve for quantification with an upper limit of 200%. […] Total well fluorescence above background was quantified with ImageJ software. For each virus, samples were quantified by nonlinear regression against the standard curve using Prism software (GraphPad Software, Inc., La Jolla, CA).

HAdV species B1 = assay: Infection assay (hexon staining), HAdV species B1; format: cell-based, human adenovirus; conditions: 15 µM HD5, A549 cells, hexon staining at ~48 h, vs. no defensin
Experimental: as §1, §2, §3

HAdV species E = assay: Infection assay (hexon staining), HAdV species E; format: cell-based, human adenovirus; conditions: 15 µM HD5, A549 cells, hexon staining at ~48 h, vs. no defensin
Experimental: as §1, §2, §3

HAdV-7p = assay: Virus-defensin binding assay, HAdV-7p; parameters: species or system human adenovirus; conditions: 20 µM HD5, mean of two or three independent experiments ± SD
Excerpt: (§4) Figure 2 HD5 binding to HAdV. A) HD5 binding to a representative defensin-sensitive serotype (HAdV-5) was quantified by an equilibrium-binding assay. Data are the mean of the number of HD5 molecules bound per virion at the indicated HD5 concentrations from at least three independent experiments ± SD. Binding curves were fitted using Prism software. B) Binding of HD5 to additional defensin-sensitive (HAdV-7p) and resistant (HAdV-19c, -25p, -51p) serotypes expressed as a percent of HD5 bound to HAdV-5. Data are the mean of two or three independent experiments ± SD.
(§5) We assessed HD5 binding to additional serotypes after incubation with 20 µM HD5 (Figure 2B). The sensitive serotype HAdV-7p bound 69.3±15.9% of the amount of HD5 bound to HAdV-5 in parallel samples; whereas, the corresponding values for the resistant serotypes HAdV-19c, -25p, and -51p were 32.5±7.5%, 3.3±5.8%, and 24.6±12.0%, respectively.
(§6) To measure HD5 binding to HAdV-5 and -51, HD5 was serially diluted in PBS and mixed with 5 µg purified virus. […] The other half of each sample was used to make a standard curve for quantification. […] Virus bands were quantified using ImageQuant NT software (GE Healthcare). […] The amount of HD5 in the centrifuged samples was then quantified against the standard curve using Prism software. […]

HAdV-F serotypes = assay: Infection assay (hexon staining), HAdV species F; format: cell-based, human adenovirus; conditions: 15 µM HD5, A549 cells, hexon staining at ~48 h, vs. no defensin; upper limit 200%
Experimental: as §1, §2, §3

HAdV-51p = assay: Virus-defensin binding assay, HAdV-51p; parameters: species or system human adenovirus
Excerpt: as §4, §5, §6

B1: HD5: human alpha-defensin; synthetic, obtained from Peptides International; three disulfide bonds (PDB 1ZMP) (peptide, UniProt Q01523 20-94, looked up)
Defensin alpha 5: ESLQERADEATTQKQSGEDNQDLAISFAGNGLSALRTSGSQARATCYCRTGRCATRESLSGVCEISGRLYRLCCR
modifications: Defensin-5
- sensitivity to neutralization (infectivity) (HAdV species C): sensitive
- sensitivity to neutralization (infectivity) (HAdV species B1): sensitive
- sensitivity to neutralization (infectivity) (HAdV species E): sensitive
- HD5 bound, percent of HD5 bound to HAdV-5 (HAdV-7p): 69.3±15.9%
- sensitivity to neutralization (infectivity) (HAdV-F serotypes): completely resistant to HD5-mediated neutralization and, in most cases, infection is actually enhanced
- HD5 bound, percent of HD5 bound to HAdV-5 (HAdV-51p; 20 µM HD5, mean of two or three independent experiments ± SD): 24.6±12.0%
- level of HD5 binding (in words) (HAdV-51p; HAdV-51p): only a low level of binding
